From patent US20230365662A1
Substitutions are numbered along the chain they refer to. In names and notes the source's numbering stands. Several values for one entry are separate records, joined by “and”; a condition that tells them apart may be missing. Equal entries are not always repeated.

Tests used:
[1] = biological target: HRgpA-6H (Porphyromonas gingivalis) (UniProt P28784); test: ELISA, FASEBA Fab on coated HRgpA-6H
[2] = biological target: HRgpA-6H (Porphyromonas gingivalis) (UniProt P28784); test: ELISA on coated HRgpA-6H

B1: KB001 mouse Fab VL L55K (Fab, V domains shown)
VH: EVQLKQSGPGLVAPSQSLSITCTVSGFSLSIYSVHWVRQPPGKGLEWLGMIWGGGSSDYNSALKSRLSISKDNSKSQVFLKMNSLQTDDTAMYYCARNGNFYAMDYWGQGTSVTVSS
VL: QIVLTQSPAIMSASLGERVTMTCTASSSVSSSFLHWYQQKPGSSPQLWIYSTSNKASGVPARFSGSGSGTSYSLTISSMEAEDAATYYCHQYHHSPYIYTFGGGTKLEIK
[1]
  OD450nm: 0.769
  Ratio OD(Variant)/OD(WT): 0.981

B2: KB001 mouse Fab FASEBA VH S30N (Fab, V domains shown)
VH: B1 VH with S30N
VL: B1 VL with K55L
[2]
  OD450nm: 0.565 and 0.56
  Ratio OD(Variant)/OD(WT): 1.12 and 1.11

B3: KB001 mouse Fab FASEBA VH Y106M (Fab, V domains shown)
VH: B1 VH with Y106M
VL: B1 VL with K55L
[2]
  OD450nm: 0.794 and 0.84
  Ratio OD(Variant)/OD(WT): 1.03 and 1.09

B4: KB001 mouse Fab FASEBA VH S30Y (Fab, V domains shown)
VH: B1 VH with S30Y
VL: B1 VL with K55L
[2]
  OD450nm: 0.53 and 0.488
  Ratio OD(Variant)/OD(WT): 1.05 and 0.967

B5: KB001 mouse Fab FASEBA VH S30E (Fab, V domains shown)
VH: B1 VH with S30E
VL: B1 VL with K55L
[2]
  OD450nm: 0.567
  Ratio OD(Variant)/OD(WT): 1.12

B6: KB001 mouse Fab FASEBA VH S65V (Fab, V domains shown)
VH: B1 VH with S65V
VL: B1 VL with K55L
[2]
  OD450nm: 0.867
  Ratio OD(Variant)/OD(WT): 1.05

B7: KB001 mouse Fab FASEBA VH S61Q (Fab, V domains shown)
VH: B1 VH with S61Q
VL: B1 VL with K55L
[2]
  OD450nm: 0.634
  Ratio OD(Variant)/OD(WT): 1.28

B8: KB001 mouse Fab FASEBA VH Y106A (Fab, V domains shown)
VH: B1 VH with Y106A
VL: B1 VL with K55L
[2]
  OD450nm: 0.821 and 0.835
  Ratio OD(Variant)/OD(WT): 1.07 and 1.09

B9: KB001 mouse Fab FASEBA VH Y106L (Fab, V domains shown)
VH: B1 VH with Y106L
VL: B1 VL with K55L
[2]
  OD450nm: 0.791
  Ratio OD(Variant)/OD(WT): 1.03

B10: KB001 mouse Fab FASEBA VH S57V (Fab, V domains shown)
VH: B1 VH with S57V
VL: B1 VL with K55L
[2]
  OD450nm: 0.911 and 0.869
  Ratio OD(Variant)/OD(WT): 1.04 and 0.988

B11: KB001 mouse Fab FASEBA VH S28P (Fab, V domains shown)
VH: B1 VH with S28P
VL: B1 VL with K55L
[2]
  OD450nm: 0.545 and 0.452 and 0.514
  Ratio OD(Variant)/OD(WT): 1.01 and 0.837 and 0.952

B12: KB001 mouse Fab VL T100D (Fab, V domains shown)
VH: B1 VH
VL: B1 VL with K55L, T100D
[1]
  OD450nm: 0.645
  Ratio OD(Variant)/OD(WT): 1.23

B13: KB001 mouse Fab FASEBA VH I31V (Fab, V domains shown)
VH: B1 VH with I31V
VL: B1 VL with K55L
[2]
  OD450nm: 0.537 and 0.521
  Ratio OD(Variant)/OD(WT): 1.06 and 1.03

B14: KB001 mouse Fab FASEBA VH V34I (Fab, V domains shown)
VH: B1 VH with V34I
VL: B1 VL with K55L
[2]
  OD450nm: 0.891 and 0.868 and 0.866
  Ratio OD(Variant)/OD(WT): 1.08 and 1.05 (2×)

B15: KB001 mouse Fab FASEBA VH S57A (Fab, V domains shown)
VH: B1 VH with S57A
VL: B1 VL with K55L
[2]
  OD450nm: 0.922
  Ratio OD(Variant)/OD(WT): 1.05

B16: KB001 mouse Fab FASEBA VH K64R (Fab, V domains shown)
VH: B1 VH with K64R
VL: B1 VL with K55L
[2]
  OD450nm: 0.87
  Ratio OD(Variant)/OD(WT): 1.05

B17: KB001 mouse Fab FASEBA VH S61N (Fab, V domains shown)
VH: B1 VH with S61N
VL: B1 VL with K55L
[2]
  OD450nm: 0.537
  Ratio OD(Variant)/OD(WT): 1.09

B18: KB001 mouse Fab FASEBA VH K64A (Fab, V domains shown)
VH: B1 VH with K64A
VL: B1 VL with K55L
[2]
  OD450nm: 0.89
  Ratio OD(Variant)/OD(WT): 1.08

B19: KB001 mouse Fab FASEBA VH I31M (Fab, V domains shown)
VH: B1 VH with I31M
VL: B1 VL with K55L
[2]
  OD450nm: 0.522
  Ratio OD(Variant)/OD(WT): 1.03

B20: KB001 mouse Fab FASEBA VH Y106I (Fab, V domains shown)
VH: B1 VH with Y106I
VL: B1 VL with K55L
[2]
  OD450nm: 0.803
  Ratio OD(Variant)/OD(WT): 1.04

B21: KB001 mouse Fab FASEBA VH Y106T (Fab, V domains shown)
VH: B1 VH with Y106T
VL: B1 VL with K55L
[2]
  OD450nm: 0.827
  Ratio OD(Variant)/OD(WT): 1.07

B22: KB001 mouse Fab FASEBA VH N100E (Fab, V domains shown)
VH: B1 VH with N100E
VL: B1 VL with K55L
[2]
  OD450nm: 0.886
  Ratio OD(Variant)/OD(WT): 1.05

B23: KB001 mouse Fab FASEBA VH Y106R (Fab, V domains shown)
VH: B1 VH with Y106R
VL: B1 VL with K55L
[2]
  OD450nm: 0.793
  Ratio OD(Variant)/OD(WT): 1.03

B24: KB001 mouse Fab FASEBA VH S65D (Fab, V domains shown)
VH: B1 VH with S65D
VL: B1 VL with K55L
[2]
  OD450nm: 0.866 and 0.897
  Ratio OD(Variant)/OD(WT): 1.05 and 1.08

B25: KB001 mouse Fab VL T100K (Fab, V domains shown)
VH: B1 VH
VL: B1 VL with K55L, T100K
[1]
  OD450nm: 0.625
  Ratio OD(Variant)/OD(WT): 1.19

B26: KB001 mouse Fab FASEBA VH G99Y (Fab, V domains shown)
VH: B1 VH with G99Y
VL: B1 VL with K55L
[2]
  OD450nm: 0.835
  Ratio OD(Variant)/OD(WT): 1.05

B27: KB001 mouse Fab VL L55V (Fab, V domains shown)
VH: B1 VH
VL: B1 VL with K55V
[1]
  OD450nm: 0.706
  Ratio OD(Variant)/OD(WT): 0.901

B28: KB001 mouse Fab FASEBA VH S61D (Fab, V domains shown)
VH: B1 VH with S61D
VL: B1 VL with K55L
[2]
  Ratio OD(Variant)/OD(WT): 1.14 and 1.11 (2×) and 0.956

B29: KB001 mouse Fab FASEBA VH S30A (Fab, V domains shown)
VH: B1 VH with S30A
VL: B1 VL with K55L
[2]
  OD450nm: 0.534 and 0.499 and 0.494
  Ratio OD(Variant)/OD(WT): 1.06 and 0.989 and 0.979

B30: KB001 mouse Fab FASEBA VH S61T (Fab, V domains shown)
VH: B1 VH with S61T
VL: B1 VL with K55L
[2]
  OD450nm: 0.543 and 0.447
  Ratio OD(Variant)/OD(WT): 1.1 and 0.906

B31: KB001 mouse Fab FASEBA VH Y59V (Fab, V domains shown)
VH: B1 VH with Y59V
VL: B1 VL with K55L
[2]
  OD450nm: 0.83 and 0.79
  Ratio OD(Variant)/OD(WT): 1.05 and 0.999

B32: KB001 mouse Fab FASEBA VH G99S (Fab, V domains shown)
VH: B1 VH with G99S
VL: B1 VL with K55L
[2]
  OD450nm: 0.809
  Ratio OD(Variant)/OD(WT): 1.01

B33: KB001 mouse Fab FASEBA VH A103S (Fab, V domains shown)
VH: B1 VH with A103S
VL: B1 VL with K55L
[2]
  OD450nm: 0.909
  Ratio OD(Variant)/OD(WT): 1.05

B34: KB001 mouse Fab FASEBA VH S28E (Fab, V domains shown)
VH: B1 VH with S28E
VL: B1 VL with K55L
[2]
  OD450nm: 0.561 and 0.551 and 0.494
  Ratio OD(Variant)/OD(WT): 1.04 and 1.02 and 0.915

B35: KB001 mouse Fab FASEBA VH S56A (Fab, V domains shown)
VH: B1 VH with S56A
VL: B1 VL with K55L
[2]
  OD450nm: 0.891 and 0.86 and 0.82
  Ratio OD(Variant)/OD(WT): 1.01 and 0.978 and 0.932

B36: KB001 mouse Fab FASEBA VH Y106F (Fab, V domains shown)
VH: B1 VH with Y106F
VL: B1 VL with K55L
[2]
  OD450nm: 0.815 and 0.856
  Ratio OD(Variant)/OD(WT): 1.06 and 1.11

B37: KB001 mouse Fab FASEBA VH Y106V (Fab, V domains shown)
VH: B1 VH with Y106V
VL: B1 VL with K55L
[2]
  OD450nm: 0.795 and 0.84 and 0.802
  Ratio OD(Variant)/OD(WT): 1.03 and 1.09 and 1.04

B38: KB001 mouse Fab FASEBA VH S57Q (Fab, V domains shown)
VH: B1 VH with S57Q
VL: B1 VL with K55L
[2]
  OD450nm: 0.915 and 0.863 and 0.836
  Ratio OD(Variant)/OD(WT): 1.04 and 0.981 and 0.951

B39: KB001 mouse Fab FASEBA VH S30G (Fab, V domains shown)
VH: B1 VH with S30G
VL: B1 VL with K55L
[2]
  OD450nm: 0.533 and 0.515
  Ratio OD(Variant)/OD(WT): 1.06 and 1.02

B40: KB001 mouse Fab FASEBA VH I31T (Fab, V domains shown)
VH: B1 VH with I31T
VL: B1 VL with K55L
[2]
  OD450nm: 0.56 and 0.534
  Ratio OD(Variant)/OD(WT): 1.11 and 1.06

B41: KB001 mouse Fab FASEBA VH S65T (Fab, V domains shown)
VH: B1 VH with S65T
VL: B1 VL with K55L
[2]
  OD450nm: 0.883
  Ratio OD(Variant)/OD(WT): 1.07
